The text below walks through data of article PMC12102759.

B1: KIAA1671 peptide 600-615 (Uncharacterized protein KIAA1671), 16-mer library wild type / MDM2 SWIB (MDM2 SWIB/MDM2 domain, residues 17-125) (parent)
chain 1: TPEDDRSFQTVWATVF
chain 2: SQIPASEQETLVRPKPLLLKLLKSVGAQKDTYTMKEVLFYLGQYIMTKRLYDEKQQHIVYCSNDLLGDLFGVPSFSVKEHRKIYTMIYRNLVVVNQQESSDSGTSVSEN
B2: PEX5 peptide 240-255 (Peroxisomal targeting signal 1 receptor), 16-mer library wild type / PEX14 Pex14 (PEX14 PEX14, residues 16-84) (parent)
chain 1: AEQWAAEFIQQQGTSD
chain 2: TPGSENVLPREPLIATAVKFLQNSRVRQSPLATRRAFLKKKGLTDEEIDMAFQQSGTAADEPSSLGPAT
B3: NYNRIN peptide 1030-1045 (Protein NYNRIN), 16-mer library wild type / NSP3 UBl1 (ORF1ab Nsp3a Ub1, residues 819-925) (parent)
chain 1: EAPSLSEEILRALSLH
chain 2: APTKVTFGDDTVIEVQGYKSVNITFELDERIDKVLNEKCSAYTVELGTEVNEFACVVADAVIKTLQPVSELLTPLGIDLDEWSMATYYLFDESGEFKLASHMYCSFY

Variants of B1 are the subject of one test. As to the kind of experiment: proteomic peptide phage display deep mutational scan (ProP-PD DMS): M13 P8 16-mer library selected against immobilised GST-tagged bait for four days (rounds), NGS of the eluted pools per day and pseudo-replica. To be noted: with MDM2 SWIB (MDM2 SWIB/MDM2 domain, residues 17-125); bait immobilised on MaxiSorp plates (10 µg), library pre-cleared on GST, 2 h binding at 4 °C, five washes; one round per day, days 1-4; value from days 2 and 3; keep out of graded; scale: average fractional NGS count over selection days 2 and 3.
For chain 1 Q9A, the screen value turned out to be 0.000111.

For chain 1 Q9S, the screen value worked out at 8.1e-05.

As for chain 1 Q9N, the screen value was 0.

chain 1 Q9G: the screen value was 0.000111.

On to chain 1 Q9P, for which the screen value turned out to be 7.92e-05.

For the variant chain 1 Q9M, the screen value was 0.000681.

For the variant chain 1 Q9T, the screen value turned out to be 4.79e-05.

As for chain 1 Q9F, the screen value came to 5.33e-05.

For chain 1 Q9I, the screen value was determined as 0.000133.

As to chain 1 Q9L, the screen value turned out to be 0.00104.

As for chain 1 Q9E, the screen value worked out at 8.49e-05.

Consider chain 1 Q9D, for which the screen value stood at 0.

chain 1 E3Q: the screen value worked out at 4.56e-05.

As for chain 1 E3P, the screen value was found to be 5.24e-05.

In the case of chain 1 E3V, the screen value stood at 0.00284.

Consider chain 1 E3N, for which the screen value came to 4.32e-05.

As for chain 1 E3I, the screen value amounted to 0.000166.

In the case of chain 1 E3L, the screen value was 0.000185.

In the case of chain 1 E3K, the screen value is 0.000111.

Turning to chain 1 E3S, the screen value was 0.00105.

With chain 1 E3A, the screen value amounted to 0.00018.

For chain 1 E3T, the screen value worked out at 0.000371.

With chain 1 E3G, the screen value worked out at 0.000104.

Turning to chain 1 E3H, the screen value is 0.000765.

As to chain 1 E3Y, the screen value was 0.00068.

Take chain 1 E3F: the screen value worked out at 1.83e-05.

As for chain 1 E3W, the screen value turned out to be 0.000218.

Regarding chain 1 E3R, the screen value is 0.000648.

As to chain 1 D4V, the screen value came out at 0.000129.

In the case of chain 1 D4Y, the screen value is 2.12e-05.

Take chain 1 D4S: the screen value came out at 0.0004.

Consider chain 1 D4P, for which the screen value worked out at 0.000107.

Consider chain 1 D4T, for which the screen value stood at 0.00033.

In the case of chain 1 D4N, the screen value was 1.9e-05.

chain 1 D4Q: the screen value was determined as 0.000505.

As to chain 1 D4G, the screen value stood at 0.000914.

Take chain 1 D4I: the screen value turned out to be 8.68e-05.

Take chain 1 D4M: the screen value stood at 4.28e-05.

As for chain 1 D4A, the screen value came to 0.00011.

For the variant chain 1 F16Y, the screen value was 0.

In the case of chain 1 F16W, the screen value worked out at 1.6e-05.

Turning to chain 1 F16E, the screen value worked out at 0.

Consider chain 1 F16M, for which the screen value stood at 4.28e-05.

With chain 1 F16I, the screen value was 5.77e-05.

On to chain 1 F16D, for which the screen value is 0.

As for chain 1 F16G, the screen value stood at 0.

Consider chain 1 F16A, for which the screen value was found to be 0.

With chain 1 F16S, the screen value was found to be 0.000197.

For chain 1 F8R, the screen value was found to be 0.

For the variant chain 1 F8N, the screen value came to 0.000113.

In the case of chain 1 F8W, the screen value came out at 0.000346.

For the variant chain 1 F8K, the screen value turned out to be 0.

In the case of chain 1 F8Y, the screen value was 1.9e-05.

Turning to chain 1 F8M, the screen value amounted to 0.000128.

For chain 1 F8A, the screen value came out at 0.00012.

Consider chain 1 F8P, for which the screen value worked out at 7.93e-05.

As to chain 1 A13L, the screen value worked out at 9.44e-05.

Take chain 1 A13V: the screen value was determined as 4.31e-05.

In the case of chain 1 A13I, the screen value stood at 0.000104.

With chain 1 A13T, the screen value came to 0.00011.

Turning to chain 1 A13R, the screen value was determined as 5.94e-05.

For chain 1 A13D, the screen value was determined as 1.83e-05.

Turning to chain 1 A13S, the screen value was found to be 0.000227.

As for chain 1 A13N, the screen value is 0.000173.

On to chain 1 A13W, for which the screen value stood at 0.000391.

For the variant chain 1 A13M, the screen value turned out to be 0.000146.

As for chain 1 A13G, the screen value turned out to be 0.

On to chain 1 A13P, for which the screen value amounted to 0.

As for chain 1 A13Q, the screen value was found to be 5.55e-05.

For the variant chain 1 A13H, the screen value turned out to be 0.000327.

As for chain 1 D5K, the screen value is 1.66e-05.

For chain 1 D5M, the screen value turned out to be 0.000189.

Regarding chain 1 D5V, the screen value came to 0.000143.

Regarding chain 1 D5L, the screen value was determined as 0.000477.

Take chain 1 D5Y: the screen value was determined as 8.89e-05.

chain 1 D5Q: the screen value came out at 2.45e-05.

Take chain 1 D5G: the screen value came out at 0.00021.

Turning to chain 1 D5S, the screen value turned out to be 0.00089.

For the variant chain 1 D5I, the screen value stood at 1.66e-05.

Turning to chain 1 D5A, the screen value was 0.000323.

Consider chain 1 D5P, for which the screen value amounted to 0.000202.

Take chain 1 D5H: the screen value was 6.55e-05.

On to chain 1 D5T, for which the screen value stood at 0.000201.

As for chain 1 D5W, the screen value came to 0.000664.

For chain 1 D5F, the screen value was 3.53e-05.

In the case of chain 1 P2I, the screen value was determined as 0.000159.

Consider chain 1 P2R, for which the screen value is 3.9e-05.

Consider chain 1 P2H, for which the screen value worked out at 4.89e-05.

For chain 1 P2D, the screen value is 6.18e-05.

Take chain 1 P2G: the screen value is 0.000243.

Take chain 1 P2E: the screen value was 6.83e-05.

Regarding chain 1 P2T, the screen value turned out to be 0.000455.

With chain 1 P2Q, the screen value came out at 9.58e-05.

On to chain 1 P2S, for which the screen value was found to be 7.3e-05.

In the case of chain 1 P2M, the screen value was found to be 0.000288.

Consider chain 1 P2Y, for which the screen value worked out at 0.000913.

In the case of chain 1 P2L, the screen value worked out at 6.52e-05.

Regarding chain 1 P2V, the screen value was 3.63e-05.

Take chain 1 P2F: the screen value was found to be 5.33e-05.

On to chain 1 P2A, for which the screen value amounted to 8.35e-05.

The next test covers variants of B2. The test is described as above. The note with it: with PEX14 Pex14 (PEX14 PEX14, residues 16-84); bait immobilised on MaxiSorp plates (10 µg), library pre-cleared on GST, 2 h binding at 4 °C, five washes; one round per day, days 1-4; value from days 2 and 3; keep out of graded; scale: average fractional NGS count over selection days 2 and 3.
Turning to chain 1 S15M, the screen value stood at 0.000166.

Consider chain 1 S15N, for which the screen value was determined as 0.

Turning to chain 1 S15E, the screen value was 0.000269.

Turning to chain 1 S15F, the screen value came out at 9.56e-05.

Regarding chain 1 Q10S, the screen value was determined as 0.00027.

For the variant chain 1 W4G, the screen value was 6.63e-05.

Regarding chain 1 W4P, the screen value came to 0.

As for chain 1 W4H, the screen value was 5.68e-05.

With chain 1 W4D, the screen value is 0.000272.

Consider chain 1 W4N, for which the screen value came out at 0.

In the case of chain 1 W4Q, the screen value stood at 0.

As for chain 1 W4L, the screen value came out at 9.31e-05.

On to chain 1 W4R, for which the screen value is 0.000107.

Regarding chain 1 E7P, the screen value came to 0.000118.

Take chain 1 E7M: the screen value came out at 0.000317.

For chain 1 E7N, the screen value stood at 0.000491.

On to chain 1 E7R, for which the screen value was 0.000213.

With chain 1 E7F, the screen value worked out at 0.00013.

For chain 1 E7S, the screen value amounted to 0.000242.

Consider chain 1 T14Y, for which the screen value was found to be 0.000275.

For the variant chain 1 E2Q, the screen value worked out at 5.27e-05.

Take chain 1 A5G: the screen value was found to be 0.

For the variant chain 1 A5P, the screen value was 0.000159.

In the case of chain 1 A5V, the screen value was 0.000326.

Consider chain 1 Q3Y, for which the screen value amounted to 9.56e-05.

For the variant chain 1 Q3E, the screen value was found to be 0.000171.

Consider chain 1 Q3F, for which the screen value amounted to 0.

Take chain 1 A1G: the screen value stood at 0.

Consider chain 1 A1L, for which the screen value was found to be 0.000125.

For the variant chain 1 A1F, the screen value stood at 0.00013.

chain 1 A6H: the screen value came out at 0.000232.

chain 1 A6Q: the screen value was 0.000319.

For the variant chain 1 I9S, the screen value came to 0.00015.

With chain 1 I9P, the screen value amounted to 0.000232.

As to chain 1 Q12N, the screen value is 0.000241.

chain 1 Q12R: the screen value was determined as 0.

With chain 1 Q12T, the screen value turned out to be 0.000175.

For the variant chain 1 G13L, the screen value was 0.

With chain 1 G13N, the screen value is 0.000117.

On to chain 1 G13R, for which the screen value stood at 0.

Take chain 1 Q11T: the screen value was determined as 0.

Turning to chain 1 Q11D, the screen value is 0.

Regarding chain 1 F8H, the screen value amounted to 0.000234.

On to chain 1 F8K, for which the screen value worked out at 0.

As to chain 1 F8D, the screen value is 0.000118.

Turning to chain 1 F8I, the screen value was determined as 9.8e-05.

As to chain 1 F8V, the screen value is 0.

In a further test the parent is B3.
Experiment: not given
The note with it: with NSP3 UBl1 (ORF1ab Nsp3a Ub1, residues 819-925); bait immobilised on MaxiSorp plates (10 µg), library pre-cleared on GST, 2 h binding at 4 °C, five washes; one round per day, days 1-4; value from days 2 and 3; keep out of graded; scale: average fractional NGS count over selection days 2 and 3.
Regarding chain 1 S4V, the screen value is 0.

chain 1 S4M: the screen value was found to be 0.

As to chain 1 L15W, the screen value is 0.

Consider chain 1 L10D, for which the screen value worked out at 0.

With chain 1 L13H, the screen value stood at 0.

Turning to chain 1 L13V, the screen value came out at 0.

chain 1 L13F: the screen value was found to be 0.

With chain 1 L13R, the screen value is 0.

With chain 1 L13M, the screen value came out at 0.

Turning to chain 1 E8N, the screen value is 0.

Turning to chain 1 E8P, the screen value is 0.

With chain 1 A2S, the screen value was determined as 0.

For the variant chain 1 R11P, the screen value is 0.

chain 1 R11L: the screen value was determined as 0.

For the variant chain 1 R11V, the screen value amounted to 0.

As for chain 1 I9E, the screen value was 0.

In the case of chain 1 I9A, the screen value amounted to 0.

Turning to chain 1 L5H, the screen value was found to be 0.

Regarding chain 1 L5N, the screen value was determined as 0.

On to chain 1 L5G, for which the screen value was found to be 0.
